Data on two molecules can be found in patent US7871782B2, “Specific binding members against synaptophysin” (The University Court of the University of Aberdeen, priority 2004, dated 2011).

For series [1], the system named is HSCs. Briefly: Effect of scAb incubation on HSC viability (attachment, protein assay). The format is cell-based, human. The conditions noted are these: 3 hours incubation, 5 μg scAb or indicated chemical, FIG. 12. As for the experimental part: Effect of scAb incubation on HSC viability. HSCs seeded into 24 well plates were incubated in 0.3 mls culture medium containing 5 μg scAb or the indicated-chemical. Cells were incubated for 3 hours prior to removal of medium and washing with 1×PBS. Attachment (as a measure of viability) was determined by a direct protein assay in the culture wells.

Series [2] relates to human HSCs. Briefly: HSC viability with gliotoxin and C1-3-gliotoxin conjugate. The class given is cell-based. The conditions noted are these: 1.5 uM gliotoxin; 10 ug C1-3-gliotoxin conjugate in 500 ul medium; FIG. 14. On the procedure:
HSC viability. Human HSCs in 24 well plate culture were treated with 500 ul medium containing either DMSO vehicle; 1.5 uM gliotoxin (750 pmoles); 20 ul C1-3 scAb at 1 mg/ml (20 ug C1-3 scAb); or 20 ul C1-3-gliotoxin conjugate at 0.5 mg/ml (10 ug C1-3 scAb-250 pmoles C1-3 scAb*/1000 pmoles gliotoxidn). *0.5 mg C1-3 protein/ml stock=12.5 uM=12.5 nmoles/ml=12.5 pmol/ul

Series [3] relates to human HSC. Briefly: FACS analysis of human HSC cultures. The format is cell-based. Particulars: co-staining under native conditions prior to fixing, 1 hour 37° C., FIG. 10. On the procedure: FACS analysis of human HSC incubated without (UPPER PANEL) or with (LOWER PANEL) primary antibodies—i.e. FITC-C13 scAb (FITC) and a mouse monoclonal antibody to α-smooth muscle actin (αsma-APC). Anti-α-smooth muscle actin antibody was detected using a biotin conjugated secondary antibody followed by fluorophore-streptavidin conjugate incubation as outlined in the Methods section. Figures represent the percentage of cells in each quadrant. Data are typical of 3 separate cell preparations.
FITC-C1-3 scAb was added to culture medium (200 μg/10 mls) and incubated with a confluent (10 cm diameter dish) culture of HSCs for 1 hour at 37° C. The medium was then removed and the cells were washed in PBS. The cells were then detached from the culture substratum non-enzymatically using cell dissociation solution (Sigma, Poole, UK), pelleted by centrifugation and fixed/permeabilised using BD cytofix/cytoperm (BD Biosciences, Oxford, UK). After 15 minutes, the cells were washed in 0.5 mls 1× wash/perm buffer (BD Biosciences, Oxford, UK) and incubated with a mouse anti-α-smooth muscle actin monoclonal antibody (Sigma, Poole, UK) diluted in 1× wash/perm buffer. […] The cells were analysed by flow cytometry (LSR I, BD, Oxford, UK). […]

Series [4] relates to human HSCs. Briefly: Uptake of scAb and conjugates by human HSCs in culture (Western blot of medium). The format is cell-based. Particulars: 5 μg scAb in 0.3 mls medium, FIG. 11. As for the experimental part: Uptake of C1-3 scAb and C1-3-conjugates by human HSCs in culture. HSCs seeded into 24 well plates were incubated in 0.3 mls culture medium containing 5 μg scAb. Samples of medium were taken at the indicated times and subjected to Western blotting to detect scAb using HRP-conjugated anti-human Cκ light chain antibody (UPPER PANEL) and serum albumin (LOWER PANEL) as a loading control. Results typical of 4 separate experiments.

The test system of series [5] is human hepatic stellate cells. Nature of the series: Fluorescence microscopy of FITC-labelled scAb with cells. The format is cell-based. On the procedure:
(§1) FITC-C1-3 scAb was tested for its ability to interact with hepatic stellate cells in culture by fluorescence microscopy. Human hepatic stellate cells were seeded (1×10^3 cells per chamber) on chamber slides (Nunclon, Naperville) in complete medium prior to experimentation. Cells were washed twice in phosphate buffered saline (PBS) and incubated in 500 μl Hepes/HBSS buffer (0.14M NaCl, 5.4 mM KCl, 0.34 mM Na2HPO4, 0.94 mm KH2PO4, 5.6 mM glucose, 1 mM CaCl2, 6 mM HEPES, 4 mM NaHCO3 pH7.4) containing 10 μg scAb or FITC-C1-3 scAb for 1 h at room temperature in the dark. The cells were then washed in PBS and mounted with Vectashield mounting medium (Vector laboratories, Burlingame, Calif.) containing 4′,6′ diamindino-2 phenylindole (DAPI) to stain cell nuclei and coverslips applied. Florescence microscopy was carried out using a Zeiss Axeola II microscope with a Photometrics Sensis camera, and data captured using the Smart Capture programme. Human hepatocytes (UK Human Tissue Bank) were originally cultured in a collagen-coated 24 well plate (1×10^5/well) and maintained in William's medium E supplemented with 80 units/ml penicillin and 80 μg/ml streptomycin.

Series [6] concerns human hepatocytes. Described as above. The format is cell-based. On the procedure:
as §1

Series [7] deals with hepatic stellate cell and hepatocytes co-cultured. The class given is cell-based, human. On the procedure: For co-culture experiments, hepatic stellate cells were seeded into hepatocytes cultures (1×10^3 cells per well) and cultured for 24 h prior to experimentation. The C1-3 or FITC-C1-3 scAb was incubated as outlined for pure hepatic stellate cell cultures except that after 1 hour incubation and washing, the cells were harvested by trypsinisation and centrifugation at 1000 rpm for 5 min. The cell pellet was then resuspended in 0.4% formaldehyde/10^6 cells, applied onto glass slides by cytocentrifugation and mounted with Vectashield containing DAPI. Slides were viewed by fluorescence microscopy as before.

The test system of series [8] is COS-7 cells. Briefly: Fluorescence binding to cells. The format is cell-based.
The subject of series [9] is HepG2 cells. Nature of the series: Fluorescence binding to cells. The class given is cell-based.
The subject of series [10] is human HSCs. Briefly: Fluorescence microscopy without fixation: effect of peptides and monensin on FITC-C1-3 scAb binding. The class given is cell-based. The conditions noted are these: 10 μg scAb, 1 hour, no fixation, FIG. 13. On the procedure:
Effect of synaptophysin peptides and monensin on FITC-C1-3 scAb binding to human HSCs. Human HSCs seeded into 24 well plates were washed and incubated in 500 μl Hepes/HBSS per well for 1 hour containing either: 10 μg C1-3 scAb; 10 μg FITC-C1-3 scAb; 10 μg FITC-C1-3 scAb and 0.25 nmoles of the target peptide; 10 μg FITC-C1-3 scAb and 2.5 nmoles of the target peptide; 10 μg FITC-C1-3 scAb and 25 nmoles of the target peptide; 10 μg FITC-C1-3 scAb and 25 nmoles of the target peptide P1; 10 μg FITC-C1-3 scAb and 2.5 μM monensin; 10 μg FITC-C1-3 scAb and 15 μM monensin; 10 μg FITC-3A8 scAb (scAb raised to microcystin and not expected to bind to HSCs). Cells incubated with monensin were preincubated for 10 minutes. Just prior to addition of scAb, the medium was changed and cells were re-dosed with monensin. […] Bar=μm. Monen=monensin; P1=the […] peptide (SEQ ID NO 27); P2=the target peptide.
HSCs seeded into 24 well plates were washed with Hepes/HBSS and then incubated at 37° C. in 500 μl/well Hepes/HBSS containing 10 μg scAb with or without additional compounds. After 1 hour, the cells were washed 3 times with 500 μl Hepes/HBSS. Cells were analysed using an Axiovert 100 microscope (Zeiss, Germany) using filter set #9 (BP 450-490 nm; LP 515 nm).

Take `CN1C(=O)[C@]23CC4=CC=C[C@H](O)[C@H]4N2C(=O)[C@@]1(CO)SS3` [gliotoxin]: in series [1], the “toxicity to HSCs (attachment as measure of viability)” value was “kill HSCs”. The “killing of human HSCs” value in series [2] is “killed human HSCs”.

B1: FITC-C1-3 scAb: C1-3 scAb labelled with FITC (conjugate)
scFv: MAEVQLLESGGGLVQPGGSLRLSCAASGFTFSSYAMSWVRQAPGKGLEWVSTIAASGPSTGYADSVKGRFTISRDNSKNTLYLQMNSLRAEDTAVYYCAKTTAKFDYWGQGTLVTVSSGGGGSGGGGSGGGGSTDIQMTQSPSSLSASVGDRVTITCRASQSISSYLNWYQQKPGKAPKLLIYSASRLQSGVPSRFNGSGSGTDFTLTISSLQPEDFATYYCQQLQRKPTTFGQGTKVEIKRGAAAPSVFIFPPSDEQLKSGTASVVCLLNNFYPREAKVQWKVDNALQSGNSQESVTEQDSKDSTYSLSSTLTLSKADYEKHKVYACEVTHQGLSSPVTKSFNRGESHHHHHH
In the case of B1, the “binding to α-smooth muscle actin positive human HSCs (FACS)” value in [3] was “all the cells bound C1-3 scAb”. Moreover, in series [4], the “association with HSCs: change of culture medium concentration of scAb” value is on record as “reduction in culture medium concentrations”. In series [5] (10 μg scAb, 1 h, room temperature), the “green fluorescence associated with hepatic stellate cells” value is listed as “fluorescence was associated with hepatic stellate cells”. Moreover, the “location of fluorescence in hepatic stellate cells” value in [5] (mounting medium with DAPI) is “fluorescence was located around the nuclear and cell membranes”. Besides, the “green fluorescence associated with human hepatocytes” value in [6] is on record as “no associated green fluorescence”. The “green fluorescence in hepatic stellate cell/hepatocyte co-cultures” value in series [7] is recorded as “Fluorescence was observed on stellate cells whilst hepatocytes consistently failed to display detectable levels of associated green fluorescence”. Further, the “fluorescence binding to COS-7 cells” value in series [8] is “not detected”. In addition, the “fluorescence binding to HepG2 cells” value in series [9] is “not detected”. Moreover, the “association of FITC-labelled scAb with HSCs” value in series [10] is given as “associated with HSCs”.
